Experimental findings from paper PMC11417369, “DNA sequence and chromatin differentiate sequence-specific transcription factor binding in the human malaria parasite Plasmodium falciparum” are described below.

Substitutions are numbered along the chain they refer to.

T1: AP2-HC D1 (Plasmodium falciparum, UniProt Q8IKR9 1316-1374)
T1 sequence: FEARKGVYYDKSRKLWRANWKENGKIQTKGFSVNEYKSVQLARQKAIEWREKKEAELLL

T2: PF3D7_0420300 D1 (Plasmodium falciparum, UniProt Q8I1N6 1956-2015)
T2 sequence: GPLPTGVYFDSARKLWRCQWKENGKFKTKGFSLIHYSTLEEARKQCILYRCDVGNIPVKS

B1: CACACA_negctrl_site1762 (dsDNA)
DNA 1: TTTTTTTCTTCTTTTCTCTTAAAAATATTGAATATT
DNA 2: AATATTCAATATTTTTAAGAGAAAAGAAGAAAAAAA
B2: CACACA_negctrl_site721 (dsDNA)
DNA 1: TTTTAAAAAAAATAAAAAATAAACAATAATAAATAA
DNA 2: TTATTTATTATTGTTTATTTTTTATTTTTTTTAAAA
B3: CACACA_negctrl_site474 (dsDNA)
DNA 1: TAAAAAAAGGAAAACATACAATTCTATTTTTCAATA
DNA 2: TATTGAAAAATAGAATTGTATGTTTTCCTTTTTTTA
B4: CACACA_negctrl_site1411 (dsDNA)
DNA 1: AATTAAAGGAATTACAACTTTGCAAGCGCAACATAA
DNA 2: TTATGTTGCGCTTGCAAAGTTGTAATTCCTTTAATT
B5: CACACA_negctrl_site660 (dsDNA)
DNA 1: TTTTCTTAATATTTCGTTTTACATAAACCTTTTAAA
DNA 2: TTTAAAAGGTTTATGTAAAACGAAATATTAAGAAAA
B6: CACACA_negctrl_site1092 (dsDNA)
DNA 1: TCAAAATGTGACATAAAAGAAAAAAAAAAAAAAAAA
DNA 2: TTTTTTTTTTTTTTTTTCTTTTATGTCACATTTTGA
B7: CACACA_negctrl_site398 (dsDNA)
DNA 1: TATTTATTTATTTATTTATTTATTTATTTATATTTA
DNA 2: TAAATATAAATAAATAAATAAATAAATAAATAAATA
B8: CACACA_negctrl_site39 (dsDNA)
DNA 1: AATATATCAAAAATTGGATAGTTTCTTATAAAAAAT
DNA 2: ATTTTTTATAAGAAACTATCCAATTTTTGATATATT
B9: CACACA_negctrl_site809 (dsDNA)
DNA 1: AAATAATATTTTTTTTTTTTTTTTTTTTTATGTTAT
DNA 2: ATAACATAAAAAAAAAAAAAAAAAAAAATATTATTT
B10: CACACA_negctrl_site566 (dsDNA)
DNA 1: TATTTTTATACAATTTAACACGGGTTATAAAATGTA
DNA 2: TACATTTTATAACCCGTGTTAAATTGTATAAAAATA
B11: CACACA_negctrl_site1152 (dsDNA)
DNA 1: TCATATTTGCCTTTTTATTTAGAACACAAAAAAAAA
DNA 2: TTTTTTTTTGTGTTCTAAATAAAAAGGCAAATATGA
B12: CACACA_negctrl_site629 (dsDNA)
DNA 1: TGCTTATATCTTATAATATTTATACATCATAATAAG
DNA 2: CTTATTATGATGTATAAATATTATAAGATATAAGCA
B13: CACACA_negctrl_site1766 (dsDNA)
DNA 1: ACACATATATATATATATATATATATATATATATAT
DNA 2: B13 DNA 1 with C2T, C4T, A33G, A35G
B14: CACACA_negctrl_site1685 (dsDNA)
DNA 1: B13 DNA 1 with C2T, C4T, T12A, T18A
DNA 2: B13 DNA 1 with C2T, C4T, A19T, A25T
B15: CACACA_negctrl_site368 (dsDNA)
DNA 1: TTTTTCATTTCTGCATTTATTTATAAATAAATATTT
DNA 2: AAATATTTATTTATAAATAAATGCAGAAATGAAAAA
B16: CACACA_negctrl_site217 (dsDNA)
DNA 1: TAATTTCATCATATTTGTTCCTTCTCAAAATTTTTT
DNA 2: AAAAAATTTTGAGAAGGAACAAATATGATGAAATTA
B17: CACACA_negctrl_site215 (dsDNA)
DNA 1: ATAAAATATTATATATATATATATATATATATATAT
DNA 2: ATATATATATATATATATATATATATAATATTTTAT
B18: CACACA_negctrl_site484 (dsDNA)
DNA 1: ATTCATATTAAATATATATATATATATATATATATA
DNA 2: TATATATATATATATATATATATATTTAATATGAAT
B19: CACACA_negctrl_site680 (dsDNA)
DNA 1: AACACTCAAAAAAATTTAAATAAAAAAAAAAAAAAA
DNA 2: TTTTTTTTTTTTTTTATTTAAATTTTTTTGAGTGTT
B20: CACACA_negctrl_site1286 (dsDNA)
DNA 1: TTGTATTCCTTTTACAACTACCATGAAGAGAATTTT
DNA 2: AAAATTCTCTTCATGGTAGTTGTAAAAGGAATACAA
B21: CACACA_negctrl_site148 (dsDNA)
DNA 1: TTTTTGATGAAATATTATTTTCCTGACTTGGATTAA
DNA 2: TTAATCCAAGTCAGGAAAATAATATTTCATCAAAAA
B22: CACACA_negctrl_site607 (dsDNA)
DNA 1: TGTGTCAAGTTTAATAAACGCATATAATATATATGA
DNA 2: TCATATATATTATATGCGTTTATTAAACTTGACACA
B23: CACACA_negctrl_site1 (dsDNA)
DNA 1: TTTTTTATTGTGATACGTATATTATTTTTTGATAAA
DNA 2: TTTATCAAAAAATAATATACGTATCACAATAAAAAA
B24: CACACA_negctrl_site844 (dsDNA)
DNA 1: AATATCATCCTTTTTTTTTATAAAATTTAAAATATA
DNA 2: TATATTTTAAATTTTATAAAAAAAAAGGATGATATT
B25: CACACA_negctrl_site1260 (dsDNA)
DNA 1: TAAATCATTTCATGGCATTTACACAAAATTTTTTAA
DNA 2: TTAAAAAATTTTGTGTAAATGCCATGAAATGATTTA
B26: CACACA_negctrl_site347 (dsDNA)
DNA 1: TTATATATATTTAAAAAAATAACATAAATAAATAAA
DNA 2: TTTATTTATTTATGTTATTTTTTTAAATATATATAA
B27: CACACA_negctrl_site1512 (dsDNA)
DNA 1: ACGAATTAAATGGATTAATATATATATGTATATTTA
DNA 2: TAAATATACATATATATATTAATCCATTTAATTCGT
B28: CACACA_negctrl_site1635 (dsDNA)
DNA 1: TTTTGATATAAATATTAGATTAATAAATAAAAAAAT
DNA 2: ATTTTTTTATTTATTAATCTAATATTTATATCAAAA
B29: CACACA_negctrl_site1531 (dsDNA)
DNA 1: TATTTCCATTCATAATTTTGTAGAATATATAACCGT
DNA 2: ACGGTTATATATTCTACAAAATTATGAATGGAAATA
B30: CACACA_negctrl_site842 (dsDNA)
DNA 1: ACTAAAAGATATATAATTTCTTTCTTATTTATTTTT
DNA 2: AAAAATAAATAAGAAAGAAATTATATATCTTTTAGT
B31: CACACA_negctrl_site1235 (dsDNA)
DNA 1: TTTAAAAAAAAAAAAAAAAAAAAAAAAAAAAATTTG
DNA 2: CAAATTTTTTTTTTTTTTTTTTTTTTTTTTTTTAAA
B32: CACACA_negctrl_site1162 (dsDNA)
DNA 1: ACACAAAAAAAAAAAAAAAAAAAAAAAAAAAAGGAA
DNA 2: TTCCTTTTTTTTTTTTTTTTTTTTTTTTTTTTGTGT
B33: CACACA_negctrl_site1028 (dsDNA)
DNA 1: ATTTTTTTATGTACACAAAAAAAAAAAAAAATTTAA
DNA 2: TTAAATTTTTTTTTTTTTTTGTGTACATAAAAAAAT
B34: CACACA_negctrl_site580 (dsDNA)
DNA 1: TATTAAAAAAAAAAATAAAAAAATAAAATAAAATAA
DNA 2: TTATTTTATTTTATTTTTTTATTTTTTTTTTTAATA
B35: CACACA_negctrl_site929 (dsDNA)
DNA 1: ACAGATATACATAAAAAAAAAATAATTTTACATATA
DNA 2: TATATGTAAAATTATTTTTTTTTTATGTATATCTGT
B36: CACACA_negctrl_site1232 (dsDNA)
DNA 1: AATATTTTTCAATTTCATGTGCATTCATTGAAGTTA
DNA 2: TAACTTCAATGAATGCACATGAAATTGAAAAATATT
B37: CACACA_negctrl_site1022 (dsDNA)
DNA 1: ATAAATTGTTCTTTTTGTGTAAACAGAATATTAAAA
DNA 2: TTTTAATATTCTGTTTACACAAAAAGAACAATTTAT
B38: CACACA_negctrl_site1828 (dsDNA)
DNA 1: ATCTCAAATATAATAAATTATTAGGTATATATATAT
DNA 2: ATATATATATACCTAATAATTTATTATATTTGAGAT
B39: CACACA_negctrl_site1399 (dsDNA)
DNA 1: TATTTTAATTTTTTTTTGTTTTTTCTAATACATGTA
DNA 2: TACATGTATTAGAAAAAACAAAAAAAAATTAAAATA

The target of the first data set is T1, AP2-HC D1. The experiment in a line: gcPBM; about 25 ug protein; PBS, 1% milk, 0.2 mg/ml BSA, salmon testes DNA, 0.03% Triton X-100. The note with it: tags: N-terminal GST (pGEX-4T-1), kept; label: surface-attached array probe.
Turning to B1, the binding signal is 9.49 ln median PBM intensity, better of two orientations.

For the molecule B2, the binding signal was 9.49 ln median PBM intensity, better of two orientations.

Take B3: the binding signal was 9.49 ln median PBM intensity, better of two orientations.

For the molecule B4, the binding signal is 9.47 ln median PBM intensity, better of two orientations.

In the case of B5, the binding signal is 9.51 ln median PBM intensity, better of two orientations.

As to B6, the binding signal is 9 ln median PBM intensity, better of two orientations.

B7: the binding signal was 9.48 ln median PBM intensity, better of two orientations.

Consider B8, for which the binding signal is 9.45 ln median PBM intensity, better of two orientations.

Regarding B9, the binding signal is 9.46 ln median PBM intensity, better of two orientations.

Consider B10, for which the binding signal was 9.46 ln median PBM intensity, better of two orientations.

Consider B11, for which the binding signal was 9.29 ln median PBM intensity, better of two orientations.

With B12, the binding signal is 9.47 ln median PBM intensity, better of two orientations.

Consider B13, for which the binding signal is 9.45 ln median PBM intensity, better of two orientations.

On to B14, for which the binding signal was 9.5 ln median PBM intensity, better of two orientations.

As to B15, the binding signal is 9.47 ln median PBM intensity, better of two orientations.

For the molecule B16, the binding signal was 9.48 ln median PBM intensity, better of two orientations.

In the case of B17, the binding signal was 9.5 ln median PBM intensity, better of two orientations.

In the case of B18, the binding signal was 9.51 ln median PBM intensity, better of two orientations.

As for B19, the binding signal is 9.05 ln median PBM intensity, better of two orientations.

On to B20, for which the binding signal is 9.49 ln median PBM intensity, better of two orientations.

Regarding B21, the binding signal was 9.49 ln median PBM intensity, better of two orientations.

B22: the binding signal was 9.51 ln median PBM intensity, better of two orientations.

For B23, the binding signal was 9.51 ln median PBM intensity, better of two orientations.

B24: the binding signal was 9.5 ln median PBM intensity, better of two orientations.

B25: the binding signal is 9.48 ln median PBM intensity, better of two orientations.

Take B26: the binding signal is 9.47 ln median PBM intensity, better of two orientations.

B27: the binding signal is 9.5 ln median PBM intensity, better of two orientations.

On to B28, for which the binding signal was 9.46 ln median PBM intensity, better of two orientations.

With B29, the binding signal is 9.51 ln median PBM intensity, better of two orientations.

As for B30, the binding signal is 9.49 ln median PBM intensity, better of two orientations.

B31: the binding signal is 9.1 ln median PBM intensity, better of two orientations.

With B32, the binding signal was 9.5 ln median PBM intensity, better of two orientations.

As to B33, the binding signal is 9.48 ln median PBM intensity, better of two orientations.

B34: the binding signal is 9.47 ln median PBM intensity, better of two orientations.

Regarding B35, the binding signal was 9.47 ln median PBM intensity, better of two orientations.

B36: the binding signal was 9.51 ln median PBM intensity, better of two orientations.

Regarding B37, the binding signal was 9.48 ln median PBM intensity, better of two orientations.

On to B38, for which the binding signal was 9.46 ln median PBM intensity, better of two orientations.

Consider B39, for which the binding signal was 9.45 ln median PBM intensity, better of two orientations.

The next data set deals with T2, PF3D7_0420300 D1. The description is as above. Conditions: tags: N-terminal GST (pGEX-4T-1), kept; label: surface-attached array probe.
Turning to B6, the binding signal was 8.62 ln median PBM intensity, better of two orientations.

Take B11: the binding signal is 8.77 ln median PBM intensity, better of two orientations.

With B19, the binding signal was 8.7 ln median PBM intensity, better of two orientations.

On to B21, for which the binding signal is 8.86 ln median PBM intensity, better of two orientations.

As to B31, the binding signal is 8.59 ln median PBM intensity, better of two orientations.
